The values below come from article PMC5951847, “Substrate sequence selectivity of APOBEC3A implicates intra-DNA interactions”.

For orientation: Kd means the concentration at which binding is half-saturated.

T1 sequence (P31941 whole entry E72A): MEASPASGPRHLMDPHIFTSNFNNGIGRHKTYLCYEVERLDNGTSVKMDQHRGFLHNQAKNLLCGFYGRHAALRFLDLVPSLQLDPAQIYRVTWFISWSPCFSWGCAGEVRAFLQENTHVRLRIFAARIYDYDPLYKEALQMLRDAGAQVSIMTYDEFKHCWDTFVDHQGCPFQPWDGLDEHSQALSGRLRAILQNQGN

One data set concerns the target T1, A3A(E72A) (Homo sapiens, UniProt P31941 1-199, E72A). Nature of the data set: fluorescence anisotropy; pH 6.0; 50 mM MES pH 6.0, 100 mM NaCl, 0.5 mM TCEP, room temperature overnight, 10 nM TAMRA-oligo; competition with 300 nM A3A(E72A); pH series: acetate 4.0-5.0, MES 5.5-6.5, HEPES 7.0-8.0, Tris 8.5-9.0. The following applies: protein: recombinant; tags: His6-SUMO removed by Ulp1 (untagged); label: 5' TAMRA. (Fluorescence polarisation rises when a labelled molecule tumbles more slowly, as on binding a larger partner.)
With AAAGTCCAAAAA (ssDNA) [Poly A-GTCC (3A-GTCC-5A)], the equilibrium dissociation constant (Kd) worked out at 152 ± 2 nM. As for AAATTCAAAAAA (ssDNA) [Poly A-TTCA (3A-TTCA-5A)], the Kd was determined as 90 ± 1 nM. Regarding AAAGTCAAAAAA (ssDNA) [Poly A-GTCA (3A-GTCA-5A)], the equilibrium dissociation constant (Kd) was 150 ± 3 nM. Take AAAATCTAAAAA (ssDNA) [Poly A-ATCT (3A-ATCT-5A)]: the Kd worked out at 209 ± 5 nM. As to AAATTCTAAAAA (ssDNA) [Poly A-TTCT (3A-TTCT-5A)], the Kd amounted to 127 ± 2 nM.

For the molecule AAACTCCAAAAA (ssDNA) [Poly A-CTCC (3A-CTCC-5A)], the dissociation constant (Kd) was determined as 101 ± 2 nM.

For AAATTCCAAAAA (ssDNA) [Poly A-TTCC (3A-TTCC-5A)], the Kd stood at 114 ± 2 nM. For the molecule AAAACCAAAAAA (ssDNA) [Poly A-CC (4A-CC-6A)], the equilibrium dissociation constant (Kd) stood at 250 ± 14 nM.

Regarding TTTTTTTTTTTT (ssDNA) [Poly T (12 T)], the dissociation constant Kd was 748 ± 44 nM. As to AAACTCAAAAAA (ssDNA) [Poly A-CTCA (3A-CTCA-5A)], the equilibrium dissociation constant (Kd) is 85 ± 1 nM. Turning to CCCCCCCCCCCC (ssDNA) [Poly C (12 C)], the Kd worked out at 1570 ± 117 nM. The same measure, in the same setting: with AAAATCCAAAAA (ssDNA) [Poly A-ATCC (3A-ATCC-5A)] the figure was 163 ± 3 nM. In the case of AAAGTCGAAAAA (ssDNA) [Poly A-GTCG (3A-GTCG-5A)], the equilibrium dissociation constant (Kd) amounted to 150 ± 3 nM.

Regarding AAAATCAAAAAA (ssDNA) [Poly A-TC (4A-TC-6A)], the Kd amounted to 143 ± 4 nM. As to AAAGTCTAAAAA (ssDNA) [Poly A-GTCT (3A-GTCT-5A)], the equilibrium dissociation constant (Kd) is 218 ± 7 nM. Consider AAAATCGAAAAA (ssDNA) [Poly A-ATCG (3A-ATCG-5A)], for which the Kd worked out at 154 ± 2 nM. On to AAAATCAAAAAA (ssDNA) [Poly A-ATCA (3A-ATCA-5A)], for which the Kd was determined as 145 ± 2 nM. Regarding AAACTCTAAAAA (ssDNA) [Poly A-CTCT (3A-CTCT-5A)], the equilibrium dissociation constant (Kd) was 122 ± 2 nM. For the molecule TTTTTCTTTTTT (ssDNA) [Poly T-C (5T-C-6T)], the Kd came out at 35 ± 2 nM.

The same data set, now with this note: protein: recombinant; tags: His6-SUMO removed by Ulp1 (untagged); label: TAMRA (5'); hairpin.
In the case of GCCAUCUAAAGAUGGG (structured_RNA) [SDHB hairpin RNA, loop UC to AA], the Kd was found to be 202 nM. Turning to GCCAUCUAUCGAUGGG (structured_RNA) [SDHB hairpin RNA (UC in loop)], the Kd turned out to be 37 nM.

For the next data set, the target named is T1, A3A(E72A). Nature of the data set: competition; vs TAMRA-3A-TTCA-6A; 50 mM MES pH 6.0, 100 mM NaCl, 0.5 mM TCEP, room temperature overnight, 10 nM TAMRA-oligo; competition with 300 nM A3A(E72A); pH series: acetate 4.0-5.0, MES 5.5-6.5, HEPES 7.0-8.0, Tris 8.5-9.0. The note with it: protein: recombinant; tags: His6-SUMO removed by Ulp1 (untagged); label: unlabeled.
With ATTCA (ssDNA) [1A-TTCA], the binding result is “no binding”.

Take TTCAA (ssDNA) [TTCA-1A]: the binding result is given as “no binding”.
